Read-outs that look alike come from different tables or passages of the source.
How the values were obtained:
Test in all cases: cell-based or functional assay
[1] = biological target: wild type TSHR expressed in CHO cells (human) (UniProt P16473)
[2] = biological target: TSHR with Arg80 mutated to Ala expressed in CHO cells (human) (UniProt P16473)
[3] = biological target: TSHR with Tyr185 mutated to Ala (human) (UniProt P16473)
[4] = biological target: TSHR with Asp276 mutated to Ala, expressed in CHO cells (human) (UniProt P16473)

TSH (ligand) gave a Cyclic AMP produced (pmol/mL), 3 ng/mL TSH, Experiment 1 [1] of 86.2 pmol/mL, a Cyclic AMP produced (pmol/mL), 3 ng/mL TSH, Experiment 2 [1] of 69.8 pmol/mL and a Cyclic AMP produced (pmol/mL), TSH 0.01 ng/mL [1] of 1.56 pmol/mL. It also gave a Cyclic AMP produced (pmol/mL), TSH 0.01 ng/mL, Experiment 1 [1] of 1.37 pmol/mL, a Cyclic AMP produced (pmol/mL), TSH 0.01 ng/mL, Experiment 2 [1] of 2.1 pmol/mL and a Cyclic AMP produced (pmol/mL), TSH 0.03 ng/mL [1] of 2.42 pmol/mL. It also gave a Cyclic AMP produced (pmol/mL), TSH 0.03 ng/mL, Experiment 1 [1] of 1.58 pmol/mL, a Cyclic AMP produced (pmol/mL), TSH 0.03 ng/mL, Experiment 2 [1] of 4.48 pmol/mL and a Cyclic AMP produced (pmol/mL), TSH 0.1 ng/mL [1] of 4.09 pmol/mL. For the same substance, the Cyclic AMP produced (pmol/mL), TSH 0.1 ng/mL, Experiment 1 [1] was 1.83 pmol/mL, the Cyclic AMP produced (pmol/mL), TSH 0.1 ng/mL, Experiment 2 [1] was 10.3 pmol/mL and the Cyclic AMP produced (pmol/mL), TSH 0.3 ng/mL [1] was 11.4 pmol/mL. The Cyclic AMP produced (pmol/mL), TSH 0.3 ng/mL, Experiment 1 (single determination) [1] was 3.2 pmol/mL, the Cyclic AMP produced (pmol/mL), TSH 0.3 ng/mL, Experiment 2 [1] was 35.7 pmol/mL and the Cyclic AMP produced (pmol/mL), TSH 1 ng/mL [1] was 45.6 pmol/mL. For the same substance, the Cyclic AMP produced (pmol/mL), TSH 1 ng/mL, Experiment 1 [1] was 15.9 pmol/mL, the Cyclic AMP produced (pmol/mL), TSH 1 ng/mL, Experiment 2 [1] was 72 pmol/mL and the Cyclic AMP produced (pmol/mL), TSH 3 ng/mL [1] was 77.9 pmol/mL. It also gave a Cyclic AMP produced (pmol/mL), TSH 3 ng/mL, Experiment 1 [1] of 47.6 pmol/mL, a Cyclic AMP produced (pmol/mL), TSH 3 ng/mL, Experiment 2 [1] of 79.2 pmol/mL and a Cyclic AMP produced, TSH 0.01 ng/mL, wild type TSHR [1] of 2.28 pmol/mL. It also gave a Cyclic AMP produced, TSH 0.03 ng/mL, wild type TSHR [1] of 3.77 pmol/mL, a Cyclic AMP produced, TSH 0.1 ng/mL, wild type TSHR [1] of 9.55 pmol/mL and a Cyclic AMP produced, TSH 0.3 ng/mL, wild type TSHR [1] of 28.8 pmol/mL. It also gave a Cyclic AMP produced, TSH 1 ng/mL, wild type TSHR [1] of 76.8 pmol/mL, a Cyclic AMP produced, TSH 3 ng/mL, wild type TSHR [1] of 93.1 pmol/mL and a Cyclic AMP produced, wild type TSHR, TSH 0.01 ng/mL (Experiment 1) [1] of 1.69 pmol/mL. For the same substance, the Cyclic AMP produced, wild type TSHR, TSH 0.01 ng/mL (Experiment 2) [1] was 4.16 pmol/mL, the Cyclic AMP produced, wild type TSHR, TSH 0.03 ng/mL (Experiment 1) [1] was 2.46 pmol/mL and the Cyclic AMP produced, wild type TSHR, TSH 0.03 ng/mL (Experiment 2) [1] was 4.92 pmol/mL. It also gave a Cyclic AMP produced, wild type TSHR, TSH 0.1 ng/mL (Experiment 1) [1] of 6.18 pmol/mL, a Cyclic AMP produced, wild type TSHR, TSH 0.1 ng/mL (Experiment 2) [1] of 11.2 pmol/mL and a Cyclic AMP produced, wild type TSHR, TSH 0.3 ng/mL (Experiment 1) [1] of 18.9 pmol/mL. For the same substance, the Cyclic AMP produced, wild type TSHR, TSH 0.3 ng/mL (Experiment 2) [1] was 31.4 pmol/mL, the Cyclic AMP produced, wild type TSHR, TSH 1 ng/mL (Experiment 1) [1] was 45.2 pmol/mL and the Cyclic AMP produced, wild type TSHR, TSH 1 ng/mL (Experiment 2) [1] was 74.3 pmol/mL. It also gave a Cyclic AMP produced, wild type TSHR, TSH 3 ng/mL (Experiment 1) [1] of 61.6 pmol/mL, a Cyclic AMP produced, wild type TSHR, TSH 3 ng/mL (Experiment 2) [1] of 96.4 pmol/mL and a Cyclic AMP produced; TSH 3 ng/mL [1] of 85 pmol/mL. It also gave a Cyclic AMP produced; TSH 3 ng/mL alone [1] of 83.8 pmol/mL, a Cyclic AMP produced; TSH 3 ng/mL; Experiment 1 [1] of 68.8 pmol/mL and a Cyclic AMP produced; TSH 3 ng/mL; Experiment 2 [1] of 97.9 pmol/mL. For the same substance, the Cyclic AMP produced; TSH (2) [1] was 93.5 pmol/mL, the Cyclic AMP produced; TSH (2) 3 ng/mL, run at the end of assay [1] was 83.6 pmol/mL and the Cyclic AMP produced; TSH (2); Experiment 1 [1] was 74.3 pmol/mL. For the same substance, the Cyclic AMP produced; TSH (2); Experiment 2 [1] was 102 pmol/mL, the Experiment 1: % inhibition of TSH stimulation; TSH (2), run at the end of assay [1] was 0% and the Experiment 1; % inhibition of TSH stimulation; TSH (2) 3 ng/mL, run at the end of assay [1] was 5%. For the same substance, the Experiment 1; cyclic AMP produced; TSH 3 ng/mL [1] was 78 pmol/mL, the Experiment 1; cyclic AMP produced; TSH (2) 3 ng/mL, run at the end of assay [1] was 74.3 pmol/mL and the Experiment 2: % inhibition of TSH stimulation; TSH (2), run at the end of assay [1] was 0%. It also gave an Experiment 2; % inhibition of TSH stimulation; TSH (2) 3 ng/mL, run at the end of assay [1] of 3%, an Experiment 2; cyclic AMP produced; TSH 3 ng/mL [1] of 95.8 pmol/mL and an Experiment 2; cyclic AMP produced; TSH (2) 3 ng/mL, run at the end of assay [1] of 92.9 pmol/mL. It also gave a % inhibition of TSH stimulation; TSH (2) ([1]; record 2) of 0%, a % inhibition of TSH stimulation; TSH (2); Experiment 1 ([1]; record 2) of 0% and a % inhibition of TSH stimulation; TSH (2); Experiment 2 ([1]; record 2) of 0%. For the same substance, the Cyclic AMP produced; TSH 3 ng/mL ([1]; record 2) was 76.2 pmol/mL, the Cyclic AMP produced; TSH 3 ng/mL; Experiment 1 ([1]; record 2) was 154 pmol/mL and the Cyclic AMP produced; TSH 3 ng/mL; Experiment 2 ([1]; record 2) was 59.9 pmol/mL. The Cyclic AMP produced; TSH (2) ([1]; record 2) was 93.8 pmol/mL, the Cyclic AMP produced; TSH (2); Experiment 1 ([1]; record 2) was 160 pmol/mL and the Cyclic AMP produced; TSH (2); Experiment 2 ([1]; record 2) was 61.5 pmol/mL. It also gave a % inhibition of TSH stimulation; TSH (2) [2] of 16%, a Cyclic AMP produced; TSH 3 ng/mL [2] of 105 pmol/mL and a Cyclic AMP produced; TSH (2) [2] of 88.2 pmol/mL. For the same substance, the Mutated/wild type (%) of cyclic AMP produced; TSH 3 ng/mL [2] was 124%, the Mutated/wild type (%) of cyclic AMP produced; TSH (2) [2] was 94% and the % inhibition of TSH stimulation, TSH (2) run at the end of assay, mutated TSHR [3] was 22%. It also gave a Cyclic AMP produced (pmol/mL), TSH 3 ng/mL, mutated TSHR [3] of 52.5 pmol/mL, a Cyclic AMP produced (pmol/mL), TSH (2) 3 ng/mL run at the end of assay, mutated TSHR [3] of 41 pmol/mL and a Mutated/wild type (%) of cyclic AMP produced; TSH 3 ng/mL [3] of 52%. The Mutated/wild type (%) of cyclic AMP produced; TSH (2) 3 ng/mL, run at the end of assay [3] was 31.2%, the Cyclic AMP produced (pmol/mL), TSH 0.01 ng/mL [4] was 14.3 pmol/mL and the Cyclic AMP produced (pmol/mL), TSH 0.03 ng/mL [4] was 17.6 pmol/mL. For the same substance, the Cyclic AMP produced (pmol/mL), TSH 0.1 ng/mL [4] was 21.7 pmol/mL, the Cyclic AMP produced (pmol/mL), TSH 0.3 ng/mL [4] was 45.6 pmol/mL and the Cyclic AMP produced (pmol/mL), TSH 1 ng/mL [4] was 68.3 pmol/mL. It also gave a Cyclic AMP produced (pmol/mL), TSH 3 ng/mL [4] of 76 pmol/mL, an Experiment 1; % inhibition of TSH stimulation; TSH (2) 3 ng/mL, run at the end of assay [4] of 6% and an Experiment 1; Mutated/wild type (%) of cyclic AMP produced; TSH 3 ng/mL [4] of 91%. For the same substance, the Experiment 1; Mutated/wild type (%) of cyclic AMP produced; TSH (2) 3 ng/mL, run at the end of assay [4] was 90%, the Experiment 1; cyclic AMP produced; TSH 3 ng/mL [4] was 71.2 pmol/mL and the Experiment 1; cyclic AMP produced; TSH (2) 3 ng/mL, run at the end of assay [4] was 67 pmol/mL. For the same substance, the Experiment 2; % inhibition of TSH stimulation; TSH (2) 3 ng/mL, run at the end of assay [4] was 18%, the Experiment 2; Mutated/wild type (%) of cyclic AMP produced; TSH 3 ng/mL [4] was 78% and the Experiment 2; Mutated/wild type (%) of cyclic AMP produced; TSH (2) 3 ng/mL, run at the end of assay [4] was 66%. For the same substance, the Experiment 2; cyclic AMP produced; TSH 3 ng/mL [4] was 74.8 pmol/mL, the Experiment 2; cyclic AMP produced; TSH (2) 3 ng/mL, run at the end of assay [4] was 61.2 pmol/mL and the Mutated/Wild type (%), TSH 0.01 ng/mL [4] was 583%. It also gave a Mutated/Wild type (%), TSH 0.03 ng/mL [4] of 369%, a Mutated/Wild type (%), TSH 0.1 ng/mL [4] of 134% and a Mutated/Wild type (%), TSH 0.3 ng/mL [4] of 103%. It also gave a Mutated/Wild type (%), TSH 1 ng/mL [4] of 88% and a Mutated/Wild type (%), TSH 3 ng/mL [4] of 80%.
